Data: patent US20060269536

Experiments:
[1] = system: substrate pentapeptide RGR↓SE
[2] = system: substrate pentapeptide RR↓SID
[3] = system: substrate pentapeptide ER↓VSP
[4] = system: substrate pentapeptide LR↓SRA
[5] = system: substrate pentapeptide MTR↓SN
[6] = system: substrate pentapeptide KLR↓TT

## human glandular kallikrein hK2
[1]
  substrate phage display: peptide selected as cleaved by hK2 (scissile bond ↓): RGR↓SE
[2]
  substrate phage display: peptide selected as cleaved by hK2 (scissile bond ↓): RR↓SID
[3]
  substrate phage display: peptide selected as cleaved by hK2 (scissile bond ↓): ER↓VSP
[4]
  substrate phage display: peptide selected as cleaved by hK2 (scissile bond ↓): LR↓SRA
[5]
  substrate phage display: peptide selected as cleaved by hK2 (scissile bond ↓): MTR↓SN
[6]
  substrate phage display: peptide selected as cleaved by hK2 (scissile bond ↓): KLR↓TT
